Laboratory results published in the supplement of paper PMC9112550, “Optimization of the antimicrobial peptide Bac7 by deep mutational scanning” (BMC Biology, 2022).

System: Escherichia coli TOP10
Assay: shrunken log2 fold change of peptide-encoding DNA abundance (4.5 h post-induction vs induction); higher = less antimicrobial activity (less host growth inhibition)
Conditions: time post-induction: 4.5 h; library: site-saturation at positions 5, 18, 19, 20
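Note: peptides expressed intracellularly from a pBAD plasmid library in pooled LB shake-flask culture, induced with 0.3% L-arabinose, DNA abundance read by NGS, three biological replicates, DESeq2 with apeglm shrinkage.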

| Sequence | shrunken log2 fold change |
| --- | --- |
| RRIRFRPPRLPRPRPRPPMFPRP | -0.0657 |
| RRIRGRPPRLPRPRPRPHWHPRP | 0.0418 |
| RRIRFRPPRLPRPRPRPRGKPRP | 0.734 |
| RRIRDRPPRLPRPRPRPVMRPRP | 0.592 |
| RRIRGRPPRLPRPRPRPYMYPRP | -0.251 |
| RRIRSRPPRLPRPRPRPMPQPRP | 0.126 |
| RRIRERPPRLPRPRPRPKLRPRP | -0.0804 |
| RRIRMRPPRLPRPRPRPHAYPRP | 0.0623 |
| RRIRKRPPRLPRPRPRPFSKPRP | -0.0535 |
| RRIRKRPPRLPRPRPRPLAEPRP | 1.11 |
| RRIRERPPRLPRPRPRPKVTPRP | -0.114 |
| RRIRYRPPRLPRPRPRPGVKPRP | -0.188 |
| RRIRRRPPRLPRPRPRPVMAPRP | 0.281 |
| RRIRCRPPRLPRPRPRPEWNPRP | 0.202 |
| RRIRIRPPRLPRPRPRPPIQPRP | -0.468 |
| RRIRKRPPRLPRPRPRPYPDPRP | -0.175 |
| RRIRFRPPRLPRPRPRPRTPPRP | 0.534 |
| RRIRPRPPRLPRPRPRPLWNPRP | -0.0917 |
| RRIRPRPPRLPRPRPRPVTNPRP | -0.299 |
| RRIRERPPRLPRPRPRPNYDPRP | -0.873 |
| RRIRQRPPRLPRPRPRPRIRPRP | 0.024 |
| RRIRGRPPRLPRPRPRPLSLPRP | 0.419 |
| RRIRYRPPRLPRPRPRPERLPRP | -0.00207 |
| RRIRFRPPRLPRPRPRPIEPPRP | 0.242 |
| RRIRWRPPRLPRPRPRPYTQPRP | 0.167 |

| Sequence | shrunken log2 fold change |
| --- | --- |
| RRIRFRPPRLPRPRPRPQLDPRP | 0.123 |
| RRIRYRPPRLPRPRPRPVMEPRP | -0.0459 |
| RRIRQRPPRLPRPRPRPFAFPRP | 0.087 |
| RRIRTRPPRLPRPRPRPMNQPRP | -0.941 |
| RRIRRRPPRLPRPRPRPYITPRP | -0.523 |
| RRIRDRPPRLPRPRPRPTPWPRP | 0.66 |
| RRIRRRPPRLPRPRPRPYTMPRP | -0.255 |
| RRIRIRPPRLPRPRPRPEFAPRP | 0.452 |
| RRIRYRPPRLPRPRPRPDFGPRP | -0.251 |
| RRIRNRPPRLPRPRPRPLFWPRP | 0.0854 |
| RRIRMRPPRLPRPRPRPWRRPRP | 0.22 |
| RRIRNRPPRLPRPRPRPNEFPRP | -0.692 |
| RRIRDRPPRLPRPRPRPDNAPRP | -0.0954 |
| RRIRSRPPRLPRPRPRPVMWPRP | 0.459 |
| RRIRIRPPRLPRPRPRPYDNPRP | 0.0332 |
| RRIRFRPPRLPRPRPRPDHWPRP | -0.00426 |
| RRIRRRPPRLPRPRPRPLAAPRP | 0.874 |
| RRIRCRPPRLPRPRPRPERQPRP | -0.00823 |
| RRIRGRPPRLPRPRPRPVRGPRP | 0.866 |
| RRIRCRPPRLPRPRPRPEVMPRP | -0.0567 |
| RRIRERPPRLPRPRPRPNDRPRP | -0.426 |
| RRIRVRPPRLPRPRPRPFCPPRP | -0.0571 |
| RRIRDRPPRLPRPRPRPVWHPRP | 0.0277 |
| RRIRSRPPRLPRPRPRPDVVPRP | -0.448 |
| RRIRMRPPRLPRPRPRPPNQPRP | 0.42 |

| Sequence | shrunken log2 fold change |
| --- | --- |
| RRIRTRPPRLPRPRPRPLYFPRP | -0.418 |
| RRIRDRPPRLPRPRPRPHQYPRP | 0.0144 |
| RRIRIRPPRLPRPRPRPAMMPRP | -0.105 |
| RRIRNRPPRLPRPRPRPFHEPRP | -0.00822 |
| RRIRKRPPRLPRPRPRPYRLPRP | -0.212 |
| RRIRVRPPRLPRPRPRPVPCPRP | -0.162 |
| RRIRVRPPRLPRPRPRPKFKPRP | -0.2 |
| RRIRPRPPRLPRPRPRPHIKPRP | -0.454 |
| RRIRMRPPRLPRPRPRPPMYPRP | -0.0977 |
| RRIRLRPPRLPRPRPRPFDNPRP | -0.0289 |
| RRIRQRPPRLPRPRPRPVCDPRP | 0.0934 |
| RRIRMRPPRLPRPRPRPVLYPRP | -0.0553 |
| RRIRRRPPRLPRPRPRPWWIPRP | 0.249 |
| RRIRTRPPRLPRPRPRPIPAPRP | 0.0613 |
| RRIRRRPPRLPRPRPRPVIKPRP | -0.121 |
| RRIRPRPPRLPRPRPRPMLHPRP | -0.0917 |
| RRIRTRPPRLPRPRPRPSVNPRP | -1.91 |
| RRIRYRPPRLPRPRPRPTSNPRP | -0.276 |
| RRIRMRPPRLPRPRPRPGWPPRP | 0.595 |
| RRIRTRPPRLPRPRPRPQKCPRP | -0.0262 |
| RRIRDRPPRLPRPRPRPKWIPRP | -0.0438 |
| RRIRWRPPRLPRPRPRPDDHPRP | 0.0959 |
| RRIRNRPPRLPRPRPRPQFNPRP | -0.0424 |
| RRIRMRPPRLPRPRPRPEYPPRP | 0.0399 |
| RRIRWRPPRLPRPRPRPVTFPRP | -0.186 |
